Laboratory results: patent publication US20140004106A1

Tests used:
[1] = target: 28mer peptide of the CXCR5 antigen; assay: ELISA potency (binding); 100 mg/mL, Sucrose (60) + Mannitol (15), T zero
[2] = target: 28mer peptide of the CXCR5 antigen; assay: Antigen-ELISA; standard run with LA 09_004_9
[3] = target: 28mer peptide of the CXCR5 antigen; assay: Potency (Antigen ELISA); stored +5°C, initial
[4] = target: 28mer peptide of the CXCR5 antigen; assay: ELISA potency (binding); 100 mg/mL, Arginine (20) + NaCl (2), 7 days at 40°C
[5] = target: 28mer peptide of the CXCR5 antigen; assay: ELISA potency (binding); 100 mg/mL, Glycine (20), T zero
[6] = target: 28mer peptide of the CXCR5 antigen; assay: Antigen-ELISA; PB 10 mM pH 6.50, T0
[7] = target: 28mer peptide of the CXCR5 antigen; assay: Ag-ELISA; DS in PBS, 5°C, 1 month
[8] = target: 28mer peptide of the CXCR5 antigen; assay: ELISA potency (binding); 100 mg/mL, Glycine (20), 7 days at 40°C
[9] = target: 28mer peptide of the CXCR5 antigen; assay: ELISA potency (binding); 100 mg/mL, Glycine (20) + NaCl (2), T zero
[10] = target: 28mer peptide of the CXCR5 antigen; assay: Antigen-ELISA; PB 5 mM pH 7.50, T0
[11] = target: 28mer peptide of the CXCR5 antigen; assay: Antigen-ELISA; standard run with LA_09_27D, T0
[12] = target: 28mer peptide of the CXCR5 antigen; assay: Antigen-ELISA; standard run with LA_09_004_1
[13] = target: 28mer peptide of the CXCR5 antigen; assay: Antigen-ELISA; PB 10 mM pH 7.50, T0
[14] = target: 28mer peptide of the CXCR5 antigen; assay: ELISA potency (binding); 100 mg/mL, Trehalose (60) + NaCl (2), T zero
[15] = target: 28mer peptide of the CXCR5 antigen; assay: Antigen-ELISA; standard run with LA_09_004_4
[16] = target: 28mer peptide of the CXCR5 antigen; assay: Potency (Antigen ELISA); stored -20°C, 9 months
[17] = target: 28mer peptide of the CXCR5 antigen; assay: Antigen-ELISA; PBS 155 mM, clear glass type I + V2A piece, 24 h
[18] = target: 28mer peptide of the CXCR5 antigen; assay: Antigen-ELISA; Citrate 10 mM pH 5.00, after mechanical stress 350 rpm 2.5 h
[19] = target: 28mer peptide of the CXCR5 antigen; assay: Antigen-ELISA; PBS 155 mM pH 7.50, after 1 week at +40°C
[20] = target: 28mer peptide of the CXCR5 antigen; assay: Antigen-ELISA; Citrate 10 mM pH 5.00, after 1 week at +40°C
[21] = target: 28mer peptide of the CXCR5 antigen; assay: Antigen-ELISA; Succinate 10 mM pH 5.00, after 1 week at +40°C
[22] = target: 28mer peptide of the CXCR5 antigen; assay: Antigen-ELISA; PBS 155 mM, 1 h purged with air, 24 h
[23] = target: 28mer peptide of the CXCR5 antigen; assay: Antigen-ELISA; PB 5 mM pH 6.50, after 1 week at +40°C
[24] = target: 28mer peptide of the CXCR5 antigen; assay: Antigen-ELISA; histidine 10 mM prototype A, T0
[25] = target: 28mer peptide of the CXCR5 antigen; assay: Antigen-ELISA; Succinate 10 mM pH 5.00, T0
[26] = target: 28mer peptide of the CXCR5 antigen; assay: ELISA potency (binding); 100 mg/mL, Lysine (30) + Mannitol (15), T zero
[27] = target: 28mer peptide of the CXCR5 antigen; assay: Potency (Antigen ELISA); stored +25°C, 1 month
[28] = target: 28mer peptide of the CXCR5 antigen; assay: Potency (Antigen ELISA); stored +5°C, 6 months
[29] = target: 28mer peptide of the CXCR5 antigen; assay: Antigen-ELISA; PB 10 mM pH 7.00, T0
[30] = target: 28mer peptide of the CXCR5 antigen; assay: Antigen-ELISA; acetate 10 mM prototype C, T0
[31] = target: 28mer peptide of the CXCR5 antigen; assay: Antigen-ELISA; citrate 10 mM prototype C, T0
[32] = target: 28mer peptide of the CXCR5 antigen; assay: Antigen-ELISA; histidine 10 mM prototype D, T0
[33] = target: 28mer peptide of the CXCR5 antigen; assay: Antigen-ELISA; Citrate 10 mM pH 6.50, T0
[34] = target: 28mer peptide of the CXCR5 antigen; assay: Antigen-ELISA; Citrate 10 mM pH 6.00, after 1 week at +40°C
[35] = target: 28mer peptide of the CXCR5 antigen; assay: Antigen-ELISA; standard run with LA_09_004_8
[36] = target: 28mer peptide of the CXCR5 antigen; assay: Antigen-ELISA; Histidine 10 mM pH 5.5, after 1 week at +40°C
[37] = target: 28mer peptide of the CXCR5 antigen; assay: Antigen-ELISA; PBS 155 mM pH 6.50, T0
[38] = target: 28mer peptide of the CXCR5 antigen; assay: Antigen-ELISA; standard run with LA_09_28B, T0
[39] = target: 28mer peptide of the CXCR5 antigen; assay: Antigen-ELISA; PBS 155 mM, clear glass type I as T0, 24 h
[40] = target: 28mer peptide of the CXCR5 antigen; assay: Antigen-ELISA; PB 5 mM pH 7.00, after 1 week at +40°C
[41] = target: 28mer peptide of the CXCR5 antigen; assay: Antigen-ELISA; TRIS 10 mM pH 7.5, T0
[42] = target: 28mer peptide of the CXCR5 antigen; assay: Ag-ELISA; DS in PBS, -20°C, 1 month
[43] = target: 28mer peptide of the CXCR5 antigen; assay: ELISA potency (binding); 100 mg/mL, Arginine (20) + Mannitol (15), T zero
[44] = target: 28mer peptide of the CXCR5 antigen; assay: Ag-ELISA; DS in PBS, 25°C, 1 month

B1: Lead CXCR5 Antibody (humanized IgG4 anti-CXCR5 antibody) (antibody, V domains shown)
VH: QVQLKESGPGLVAPSESLSITCTVSGFSLIDYGVNWIRQPPGKGLEWLGVIWGDGTTYYNPSLKSRLSISKDNSKSQVFLKVTSLTTDDTAMYYCARIVYWGQGTLVTVSA
VL: DIVMTQAAPSVAVTPGASVSISCRSSKSLLHSSGKTYLYWFLQRPGQSPQLLIYRLSSLASGVPDRFSGSGSGTAFTLRISRVEAEDVGVYYCMQHLEYPYTFGGGTKLEIKR
- rel. potency [%] [1]: 205%
- EC50 % [2]: 100%
- EC50 value (in comparison to reference) [3]: 75%
- rel. potency [%] [4]: 164%
- rel. potency [%] [5]: 170%
- EC50 % [6]: 105%
- EC50 % [7]: 83%
- rel. potency [%] [8]: 180%
- rel. potency [%] [9]: 174%
- EC50 % [10]: 176%
- EC50 % [11]: 100%
- EC50 % [12]: 100%
- EC50 % [13]: 117%
- rel. potency [%] [14]: 110%
- EC50 % [15]: 100%
- EC50 value (in comparison to reference) [16]: 101%
- EC50 % [17]: 80.8%
- EC50 % [18]: 99%
- EC50 % [19]: 52%
- EC50 % [20]: 75%
- EC50 % [21]: 157%
- EC50 % [22]: 84.3%
- EC50 % [23]: 77%
- EC50 % [24]: 174%
- EC50 % [25]: 124%
- rel. potency [%] [26]: 88%
- EC50 value (in comparison to reference) [27]: 121%
- EC50 value (in comparison to reference) [28]: 97%
- EC50 % [29]: 145%
- EC50 % [30]: 142%
- EC50 % [31]: 104%
- EC50 % [32]: 169%
- EC50 % [33]: 59%
- EC50 % [34]: 98%
- EC50 % [35]: 100%
- EC50 % [36]: 81%
- EC50 % [37]: 139%
- EC50 % [38]: 100%
- EC50 % [39]: 62.3%
- EC50 % [40]: 68%
- EC50 % [41]: 104%
- EC50 % [42]: 132%
- rel. potency [%] [43]: 117%
- EC50 % [44]: 106%
